Holding throughout (test): luminescence complementation titration, one-site specific binding
Experiment [1] has as its target T1, NLpoly11S.
T1 chain: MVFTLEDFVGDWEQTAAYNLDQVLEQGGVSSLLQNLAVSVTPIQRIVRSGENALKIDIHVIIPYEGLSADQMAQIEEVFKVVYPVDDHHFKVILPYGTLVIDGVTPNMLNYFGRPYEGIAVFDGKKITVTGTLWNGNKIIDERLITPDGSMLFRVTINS

Experiment [2] has as its target T1, NLpoly11S.
Experiment [3] concerns the target T1, NLpoly11S.

What is called Kd is the free concentration of one partner at which half of the binding sites on the other are occupied at equilibrium, for simple one-to-one binding. A low value points to tighter binding.

Like-named read-outs stand apart in the source and are kept apart here.

B1: NLpep78-HaloTag (other)
chain: MNVSGWRLFKKISN
Regarding B1, binding with NLpoly11S [1] was put at a Kd of 30.2 nM.

B2: HaloTag-NLPep78 (other)
chain: NVSGWRLFKKISN
In the case of B2, binding with NLpoly11S [1] was characterised by a dissociation constant (Kd) of 7.21 nM.

B3: NLpep79-HaloTag (other)
chain: MNVTGYRLFKKISN
In turn, B3 yielded a dissociation constant (Kd) in the experiment with NLpoly11S [2] of 22.9 nM.

B4: NLpep114 (peptide)
peptide: VTGYRLFEEIL
The molecule B4 displayed a Kd with NLpoly11S [3] of 199000 nM.

B5: NLpep1 (peptide)
peptide: GVTGWRLCERILA
In turn, B5 yielded a dissociation constant Kd with NLpoly11S [3] of 2460 nM. This Kd lies about 81-fold lower than the previous one.

B6: HaloTag-NLPep79 (other)
chain: NVTGYRLFKKISN
In the experiment with NLpoly11S [2], B6 had a dissociation constant (Kd) of 33.9 nM. That is a double-digit nanomolar value.
